Experiment [1] addresses recombinant von Willebrand Factor A1 domain (amino acids 1277-1453 of human vWF) (human) (UniProt P04275). Nature of the experiment: fluorescence anisotropy; particle-bound dimeric polypeptide titrated against 150 nM vWF A1-AlexaFluor 488. (Polarisation of emitted light reports the rotation of a fluorescent probe.)
For experiment [2] the target is unchanged. Nature of the experiment: SPR (Biacore); vWF A1 domain on CM5 chip, soluble polypeptide; Kd from on- and off-rates; SPR (Biacore), vWF A1 domain on CM5 chip. A general note: SPR reads the build-up and loss of mass on a sensor chip optically.
For experiment [3], the target named is T1, human von Willebrand Factor of human blood plasma (human, UniProt P04275 764-2813).
T1 construct: mature; Native plasma protein in ELISA samples; also called vWF; plasma vWF
Description: sandwich ELISA: polypeptide captured on anti-CD42b, plasma added, detection with polyclonal rabbit anti-human vWF-HRP. The source says:
FIG. 4A is a cartoon of the enzyme-linked immunosorbent assay (ELISA) used to generate the data in FIG. 4B-4D. A solid support was coated with anti-glycoprotein Ibα antibody (anti-CD42b), which was used to immobilize recombinant polypeptide comprising a modified extracellular domain of platelet glycoprotein Ibα (CD42b; GPIbα; GP1b constructs). The solid support was then contacted with human blood plasma, von Willebrand Factor calibrators, or von Willebrand Factor controls. The solid support was then contacted with a polyclonal rabbit anti-human von Willebrand Factor antibody to which horseradish peroxidase (HRP) was conjugated. The composition was then contacted with a substrate capable of being converted into a product by HRP with a strong absorbance at 450 nm, and absorbance was measured.
Enzyme immunosorbent assays (ELISA) were used to determine that recombinant polypeptides comprising the G233T (SEQ ID NO: 21), D235V (SEQ ID NO: 30), and K237V (SEQ ID NO: 31) mutations are capable of detecting qualitative differences in vWF binding affinity. […] Briefly, the wells of a multi-well plate were coated with an anti-CD42b antibody, which specifically binds the modified extracellular domain of GPIbα of the recombinant polypeptides and was used to indirectly cross-link the recombinant polypeptides to the multi-well plate (i.e., the solid support). Various control samples, standards, and serial dilutions thereof were added to different wells of the multi-well plate including plasma samples associated with type 1, type 2B, and type 3 von Willebrand Disease, control samples of pooled human blood plasma, control samples of human blood plasma known not to have von Willebrand Disease, a 2× serial dilution of a reference standard of pooled human plasma from no dilution to 16-fold dilution, and goat blood serum as a negative control. […] Bound vWF was quantified by monitoring the conversion of a horseradish peroxidase substrate into product by absorption spectroscopy at 450 nm.
For orientation: ELISA stands for enzyme-linked immunosorbent assay.

Values joined by “and” are separate entries in the source; they are usually repeats but may differ in a detail not shown here. Equal values may be shown once. Bounds are passed on as bounds.

recombinant von Willebrand Factor A1 domain (amino acids 1277-1453 of human vWF) (human), sequence (P04275 1277-1453 limits assumed, form in doubt): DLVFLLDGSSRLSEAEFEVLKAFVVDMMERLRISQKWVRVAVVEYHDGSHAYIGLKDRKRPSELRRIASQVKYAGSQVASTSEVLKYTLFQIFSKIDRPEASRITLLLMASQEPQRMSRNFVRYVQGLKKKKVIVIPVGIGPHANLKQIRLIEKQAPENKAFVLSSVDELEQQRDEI
T1 sequence (P04275 764-2813 limits assumed): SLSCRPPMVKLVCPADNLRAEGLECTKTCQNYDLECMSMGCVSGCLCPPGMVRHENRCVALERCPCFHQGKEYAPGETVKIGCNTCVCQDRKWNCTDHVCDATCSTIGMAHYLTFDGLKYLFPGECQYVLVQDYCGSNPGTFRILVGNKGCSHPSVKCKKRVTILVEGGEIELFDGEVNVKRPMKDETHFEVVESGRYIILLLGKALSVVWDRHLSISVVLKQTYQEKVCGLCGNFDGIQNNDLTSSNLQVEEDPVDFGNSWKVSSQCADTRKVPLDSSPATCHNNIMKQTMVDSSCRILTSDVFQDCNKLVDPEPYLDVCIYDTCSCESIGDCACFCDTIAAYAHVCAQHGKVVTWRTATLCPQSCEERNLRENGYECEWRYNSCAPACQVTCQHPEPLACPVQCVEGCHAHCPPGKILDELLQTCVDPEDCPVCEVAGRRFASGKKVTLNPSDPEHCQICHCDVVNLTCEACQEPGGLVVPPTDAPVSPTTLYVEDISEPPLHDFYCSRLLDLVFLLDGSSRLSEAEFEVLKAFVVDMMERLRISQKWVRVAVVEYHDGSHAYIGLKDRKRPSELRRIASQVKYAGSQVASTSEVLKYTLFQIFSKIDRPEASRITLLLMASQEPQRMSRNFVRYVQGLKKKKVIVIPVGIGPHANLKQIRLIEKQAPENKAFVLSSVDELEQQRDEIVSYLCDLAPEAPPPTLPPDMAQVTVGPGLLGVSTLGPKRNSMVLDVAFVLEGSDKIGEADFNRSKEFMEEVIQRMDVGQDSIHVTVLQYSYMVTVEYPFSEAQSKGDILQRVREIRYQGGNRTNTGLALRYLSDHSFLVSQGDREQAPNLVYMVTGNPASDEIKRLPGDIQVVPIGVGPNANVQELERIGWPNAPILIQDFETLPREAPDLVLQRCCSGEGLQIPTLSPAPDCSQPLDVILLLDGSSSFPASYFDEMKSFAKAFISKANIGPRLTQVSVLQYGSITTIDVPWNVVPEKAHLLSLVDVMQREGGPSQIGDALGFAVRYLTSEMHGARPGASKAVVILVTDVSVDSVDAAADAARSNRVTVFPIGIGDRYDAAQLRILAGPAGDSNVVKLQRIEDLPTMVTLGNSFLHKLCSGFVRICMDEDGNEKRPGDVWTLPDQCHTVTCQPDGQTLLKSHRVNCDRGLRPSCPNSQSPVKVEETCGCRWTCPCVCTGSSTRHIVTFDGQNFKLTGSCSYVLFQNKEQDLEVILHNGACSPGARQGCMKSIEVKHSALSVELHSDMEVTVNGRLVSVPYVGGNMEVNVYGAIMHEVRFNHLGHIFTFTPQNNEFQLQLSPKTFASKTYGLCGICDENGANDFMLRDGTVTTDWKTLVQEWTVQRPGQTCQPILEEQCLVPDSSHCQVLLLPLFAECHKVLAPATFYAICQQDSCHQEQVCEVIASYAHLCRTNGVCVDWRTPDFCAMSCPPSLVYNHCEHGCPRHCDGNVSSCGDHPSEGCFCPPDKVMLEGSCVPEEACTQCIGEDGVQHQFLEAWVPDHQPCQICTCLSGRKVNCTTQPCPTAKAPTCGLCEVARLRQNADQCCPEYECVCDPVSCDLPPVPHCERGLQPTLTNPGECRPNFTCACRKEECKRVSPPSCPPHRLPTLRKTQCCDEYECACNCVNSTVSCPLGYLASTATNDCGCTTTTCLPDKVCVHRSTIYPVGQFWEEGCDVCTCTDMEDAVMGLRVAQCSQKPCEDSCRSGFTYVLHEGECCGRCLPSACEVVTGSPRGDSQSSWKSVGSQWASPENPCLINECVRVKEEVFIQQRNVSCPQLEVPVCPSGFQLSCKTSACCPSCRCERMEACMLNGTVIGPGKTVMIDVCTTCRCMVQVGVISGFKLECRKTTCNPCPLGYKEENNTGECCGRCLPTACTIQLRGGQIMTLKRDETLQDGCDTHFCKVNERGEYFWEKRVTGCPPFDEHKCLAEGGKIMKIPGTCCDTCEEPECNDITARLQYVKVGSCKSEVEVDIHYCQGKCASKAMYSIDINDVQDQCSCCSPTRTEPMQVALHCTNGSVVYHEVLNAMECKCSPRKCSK

In general, Kd refers to the equilibrium constant for the complex coming apart. In the case of “dimeric polypeptide of SEQ ID NO: 37 (WT): GPIbα extracellular domain without gain- or loss-of-function mutation, murine Fc dimerization domain (Fc fusion)”, the Kd in experiment [1] was determined as 1250 nM.

B1: dimeric polypeptide of SEQ ID NO: 21: GPIbα extracellular domain with C65S and G233T, murine IgG1 Fc dimerization domain, 8-His tag (Fc fusion)
chain: HPICEVSKVASHLEVNCDKRNLTALPPDLPKDTTILHLSENLLYTFSLATLMPYTRLTQLNLDRSELTKLQVDGTLPVLGTLDLSHNQLQSLPLLGQTLPALTVLDVSFNRLTSLPLGALRGLGELQELYLKGNELKTLPPGLLTPTPKLEKLSLANNNLTELPAGLLNGLENLDTLLLQENSLYTIPKGFFGSHLLPFAFLHGNPWLCNCEILYFRRWLQDNAENVYVWKQTVDVKAMTSNVASVQCDNSDKFPVYKYPGKGCPTLGDEGDTDLYDYYPEEDTEGDKVRVPRDCGCKPCICTVPEVSSVFIFPPKPKDVLTITLTPKVTCVVVDISKDDPEVQFSWFVDDVEVHTAQTQPREEQFNSTFRSVSELPIMHQDWLNGKEFKCRVNSAAFPAPIEKTISKTKGRPKAPQVYTIPPPKEQMAKDKVSLTCMITDFFPEDITVEWQWNGQPAENYKNTQPIMDTDGSYFVYSKLNVQKSNWEAGNTFTCSVLHEGLHNHHTEKSLSHSPGIGHHHHHHHH
notes: On particles in fluorescence anisotropy, soluble in SPR, captured by anti-CD42b in ELISA; also called G233T mutant; G233T recombinant polypeptide
For B1, the dissociation constant Kd in experiment [1] was 67 nM and < 500 nM; in experiment [2], 58 nM. Moreover, the binding result in experiment [3] was “binds”.

B2: dimeric polypeptide of SEQ ID NO: 30: GPIbα extracellular domain with C65S and D235V, murine Fc dimerization domain (Fc fusion)
chain: HPICEVSKVASHLEVNCDKRNLTALPPDLPKDTTILHLSENLLYTFSLATLMPYTRLTQLNLDRSELTKLQVDGTLPVLGTLDLSHNQLQSLPLLGQTLPALTVLDVSFNRLTSLPLGALRGLGELQELYLKGNELKTLPPGLLTPTPKLEKLSLANNNLTELPAGLLNGLENLDTLLLQENSLYTIPKGFFGSHLLPFAFLHGNPWLCNCEILYFRRWLQDNAENVYVWKQGVVVKAMTSNVASVQCDNSDKFPVYKYPGKGCPTLGDEGDTDLYDYYPEEDTEGDKVRVPRDCGCKPCICTVPEVSSVFIFPPKPKDVLTITLTPKVTCVVVDISKDDPEVQFSWFVDDVEVHTAQTQPREEQFNSTFRSVSELPIMHQDWLNGKEFKCRVNSAAFPAPIEKTISKTKGRPKAPQVYTIPPPKEQMAKDKVSLTCMITDFFPEDITVEWQWNGQPAENYKNTQPIMDTDGSYFVYSKLNVQKSNWEAGNTFTCSVLHEGLHNHHTEKSLSHSPGIGHHHHHHHH
notes: also called D235V mutant
Take B2: the equilibrium dissociation constant (Kd) in experiment [1] was < 500 nM and 250 nM. Besides, the binding result in experiment [3] is “binds”.

B3: dimeric polypeptide of SEQ ID NO: 31: GPIbα extracellular domain with C65S and K237V, murine Fc dimerization domain (Fc fusion)
chain: HPICEVSKVASHLEVNCDKRNLTALPPDLPKDTTILHLSENLLYTFSLATLMPYTRLTQLNLDRSELTKLQVDGTLPVLGTLDLSHNQLQSLPLLGQTLPALTVLDVSFNRLTSLPLGALRGLGELQELYLKGNELKTLPPGLLTPTPKLEKLSLANNNLTELPAGLLNGLENLDTLLLQENSLYTIPKGFFGSHLLPFAFLHGNPWLCNCEILYFRRWLQDNAENVYVWKQGVDVVAMTSNVASVQCDNSDKFPVYKYPGKGCPTLGDEGDTDLYDYYPEEDTEGDKVRVPRDCGCKPCICTVPEVSSVFIFPPKPKDVLTITLTPKVTCVVVDISKDDPEVQFSWFVDDVEVHTAQTQPREEQFNSTFRSVSELPIMHQDWLNGKEFKCRVNSAAFPAPIEKTISKTKGRPKAPQVYTIPPPKEQMAKDKVSLTCMITDFFPEDITVEWQWNGQPAENYKNTQPIMDTDGSYFVYSKLNVQKSNWEAGNTFTCSVLHEGLHNHHTEKSLSHSPGIGHHHHHHHH
notes: also called K237V mutant
Turning to B3, in experiment [1], the equilibrium dissociation constant (Kd) is < 500 nM and 300 nM. Further, the binding result in experiment [3] was “binds”.

For the origin of these results see patent publication US20240279312A1 (Hoffmann-La Roche, published 2024).
